Experimental data published in patent US20150023971A1.

Experiments:
[1] = target: T1, …; assay: SPOT length analysis, dot 3, HRP-S-protein detection
T1 sequence (peptide): IFRSSDFAKNFVQTD

SSDFAKNF = target: T2, SSDFAKNF; assay: SPOT length analysis, dot 41, HRP-S-protein detection
T2 sequence (peptide): SSDFAKNF

RIFRSS = target: T3, RIFRSS; assay: SPOT length analysis, dot 56, anti-histidine detection
T3 sequence (peptide): RIFRSS

FAKNF = target: T4, FAKNF; assay: SPOT length analysis, dot 74, anti-histidine detection
T4 sequence (peptide): FAKNF

[2] = target: T5, …; assay: SPOT length analysis, dot 32, anti-histidine detection
T5 sequence (peptide): RSSDFAKNF

[3] = target: T6, …; assay: SPOT length analysis, dot 5, anti-histidine detection
T6 sequence (peptide): IFRSSDFAKNFVQT

[4] = target: T7, …; assay: SPOT length analysis, dot 7, HRP-S-protein detection
T7 sequence (peptide): RIFRSSDFAKNFV

KNFVQTD = target: T8, KNFVQTD; assay: SPOT length analysis, dot 55, HRP-S-protein detection
T8 sequence (peptide): KNFVQTD

[5] = target: T9, …; assay: SPOT length analysis, dot 18, anti-histidine detection
T9 sequence (peptide): FRSSDFAKNFV

KNFVQ = target: T10, KNFVQ; assay: SPOT length analysis, dot 76, anti-histidine detection
T10 sequence (peptide): KNFVQ

NFVQT = target: T11, NFVQT; assay: SPOT length analysis, dot 77, anti-histidine detection
T11 sequence (peptide): NFVQT

[6] = target: T12, sortilin peptide RIFRSSDF on SPOT membrane; assay: SPOT length analysis, dot 37, anti-histidine detection
T12 sequence (peptide, C-terminus anchored to the cellulose membrane through a beta-alanine linker): RIFRSSDF

[7] = target: T13, sortilin peptide … (synthetic, soluble); assay: SPOT length analysis, dot 11 (peptide here cellulose-bound), anti-histidine detection
T13 sequence (peptide): RIFRSSDFAKNF

[8] = target: T14, …; assay: SPOT length analysis, dot 15, anti-histidine detection
T14 sequence (peptide): SSDFAKNFVQTD

RSSDFAK = target: T15, RSSDFAK; assay: SPOT length analysis, dot 49, anti-histidine detection
T15 sequence (peptide): RSSDFAK

SSDFAK = target: T16, SSDFAK; assay: SPOT length analysis, dot 60, anti-histidine detection
T16 sequence (peptide): SSDFAK

[9] = target: T17, sortilin peptide … on SPOT membrane; assay: SPOT length analysis, dot 1, HRP-S-protein detection
T17 sequence (peptide, C-terminus anchored to the cellulose membrane through a beta-alanine linker): RIFRSSDFAKNFVQTD

RSSDFAKN = target: T18, RSSDFAKN; assay: SPOT length analysis, dot 40, anti-histidine detection
T18 sequence (peptide): RSSDFAKN

FAKN = target: T19, FAKN; assay: SPOT length analysis, dot 86, anti-histidine detection
T19 sequence (peptide): FAKN

FAKNFVQ = target: T20, FAKNFVQ; assay: SPOT length analysis, dot 53, anti-histidine detection
T20 sequence (peptide): FAKNFVQ

RSSD = target: T21, RSSD; assay: SPOT length analysis, dot 82, anti-histidine detection
T21 sequence (peptide): RSSD

[10] = target: T22, …; assay: SPOT length analysis, dot 8, HRP-S-protein detection
T22 sequence (peptide): IFRSSDFAKNFVQ

AKNF = target: T23, AKNF; assay: SPOT length analysis, dot 87, anti-histidine detection
T23 sequence (peptide): AKNF

FAKNFV [11] = target: T24, FAKNFV; assay: SPOT length analysis, dot 63, anti-histidine detection
T24 sequence (peptide): FAKNFV

FRSSDFAK = target: T25, FRSSDFAK; assay: SPOT length analysis, dot 39, HRP-S-protein detection
T25 sequence (peptide): FRSSDFAK

DFAKN = target: T26, DFAKN; assay: SPOT length analysis, dot 73, anti-histidine detection
T26 sequence (peptide): DFAKN

RSSDF = target: T27, RSSDF; assay: SPOT length analysis, dot 70, HRP-S-protein detection
T27 sequence (peptide): RSSDF

[12] = target: T28, …; assay: SPOT length analysis, dot 22, HRP-S-protein detection
T28 sequence (peptide): RIFRSSDFAK

[13] = target: T29, …; assay: SPOT length analysis, dot 19, HRP-S-protein detection
T29 sequence (peptide): RSSDFAKNFVQ

[14] = target: T30, …; assay: SPOT length analysis, dot 13, HRP-S-protein detection
T30 sequence (peptide): FRSSDFAKNFVQ

DFAKNF = target: T31, DFAKNF; assay: SPOT length analysis, dot 62, HRP-S-protein detection
T31 sequence (peptide): DFAKNF

AKNFV = target: T32, AKNFV; assay: SPOT length analysis, dot 75, HRP-S-protein detection
T32 sequence (peptide): AKNFV

SSDF = target: T33, SSDF; assay: SPOT length analysis, dot 83, anti-histidine detection
T33 sequence (peptide): SSDF

IFRSSDFA = target: T34, IFRSSDFA; assay: SPOT length analysis, dot 38, anti-histidine detection
T34 sequence (peptide): IFRSSDFA

[15] = target: T35, …; assay: SPOT length analysis, dot 16, anti-histidine detection
T35 sequence (peptide): RIFRSSDFAKN

FAKNFV [16] = target: T24, FAKNFV; assay: SPOT length analysis, dot 63, HRP-S-protein detection
[17] = target: T36, …; assay: SPOT length analysis, dot 24, anti-histidine detection
T36 sequence (peptide): FRSSDFAKNF

FRSSDF = target: T37, FRSSDF; assay: SPOT length analysis, dot 58, anti-histidine detection
T37 sequence (peptide): FRSSDF

[18] = target: T17, sortilin peptide … on SPOT membrane; assay: SPOT length analysis, dot 1, anti-histidine detection
DFAKNFVQ = target: T38, DFAKNFVQ; assay: SPOT length analysis, dot 43, HRP-S-protein detection
T38 sequence (peptide): DFAKNFVQ

[19] = target: T39, …; assay: SPOT length analysis, dot 6, HRP-S-protein detection
T39 sequence (peptide): FRSSDFAKNFVQTD

FRSSD = target: T40, FRSSD; assay: SPOT length analysis, dot 69, anti-histidine detection
T40 sequence (peptide): FRSSD

IFRSS = target: T41, IFRSS; assay: SPOT length analysis, dot 68, HRP-S-protein detection
T41 sequence (peptide): IFRSS

[20] = target: T12, sortilin peptide RIFRSSDF on SPOT membrane; assay: SPOT length analysis, dot 37, HRP-S-protein detection
FVQT = target: T42, FVQT; assay: SPOT length analysis, dot 90, anti-histidine detection
T42 sequence (peptide): FVQT

RSSDFA = target: T43, RSSDFA; assay: SPOT length analysis, dot 59, HRP-S-protein detection
T43 sequence (peptide): RSSDFA

[21] = target: T44, …; assay: SPOT length analysis, dot 35, HRP-S-protein detection
T44 sequence (peptide): DFAKNFVQT

- BLU Sprotein [1]: 76200 BLU
- BLU Sprotein (SSDFAKNF): 16300 BLU
- BLU His (RIFRSS): 122000 BLU
- BLU His (FAKNF): 31900 BLU
- BLU His [2]: 21100 BLU
- BLU His [3]: 53400 BLU
- BLU Sprotein [4]: 168000 BLU
- BLU Sprotein (KNFVQTD): 16800 BLU
- BLU His [5]: 19400 BLU
- BLU His (KNFVQ): 18200 BLU
- BLU His (NFVQT): 17300 BLU
- BLU His [6]: 116000 BLU
- BLU His [7]: 100000 BLU
- BLU His [8]: 19200 BLU
- BLU His (RSSDFAK): 17300 BLU
- BLU His (SSDFAK): 16100 BLU
- BLU Sprotein [9]: 137000 BLU
- BLU His (RSSDFAKN): 18700 BLU
- BLU His (FAKN): 15200 BLU
- BLU His (FAKNFVQ): 69600 BLU
- BLU His (RSSD): 15000 BLU
- BLU Sprotein [10]: 126000 BLU
- BLU His (AKNF): 14600 BLU
- BLU His (FAKNFV [11]): 142000 BLU
- BLU Sprotein (FRSSDFAK): 19200 BLU
- BLU His (DFAKN): 17800 BLU
- BLU Sprotein (RSSDF): 15500 BLU
- BLU Sprotein [12]: 60500 BLU
- BLU Sprotein [13]: 22400 BLU
- BLU Sprotein [14]: 199000 BLU
- BLU Sprotein (DFAKNF): 15200 BLU
- BLU Sprotein (AKNFV): 15900 BLU
- BLU His (SSDF): 14100 BLU
- BLU His (IFRSSDFA): 21400 BLU
- BLU His [15]: 53000 BLU
- BLU Sprotein (FAKNFV [16]): 29600 BLU
- BLU His [17]: 20100 BLU
- BLU His (FRSSDF): 17500 BLU
- BLU His [18]: 57000 BLU
- BLU Sprotein (DFAKNFVQ): 14700 BLU
- BLU Sprotein [19]: 38100 BLU
- BLU His (FRSSD): 15600 BLU
- BLU Sprotein (IFRSS): 38500 BLU
- BLU Sprotein [20]: 114000 BLU
- BLU His (FVQT): 15600 BLU
- BLU Sprotein (RSSDFA): 15900 BLU
- BLU Sprotein [21]: 19500 BLU
B1: recombinant his-S-tagged pro-domain of human BDNF (residues Ala1-Arg110), from pET-30 Xa/LIC, E. coli (protein, not shown: small tags and cut ends)
chain: APMKEANIRGQGGLAYPGVRTHGTLESVNGPKAGSGLTSLADTFEHVIEELLDEDQKVRPNEENNKDADLYTSRVMLSSQVPLEPPLLFLLEEYKNYLDAANMSMRVRR
